Data published in IntAct's records for PubMed 20802461.

B1: Mitogen-activated protein kinase ERK-A (Drosophila melanogaster (Fruit fly)), P40417 (parent)
chain: MEEFNSSGSVVNGTGSTEVPQSNAEVIRGQIFEVGPRYIKLAYIGEGAYGMVVSADDTLTNQRVAIKKISPFEHQTYCQRTLREITILTRFKHENIIDIRDILRVDSIDQMRDVYIVQCLMETDLYKLLKTQRLSNDHICYFLYQILRGLKYIHSANVLHRDLKPSNLLLNKTCDLKICDFGLARIADPEHDHTGFLTEYVATRWYRAPEIMLNSKGYTKSIDIWSVGCILAEMLSNRPIFPGKHYLDQLNHILGVLGSPSRDDLECIINEKARNYLESLPFKPNVPWAKLFPNADALALDLLGKMLTFNPHKRIPVEEALAHPYLEQYYDPGDEPVAEVPFRINMENDDISRDALKSLIFEETLKFKERQPDNAP

Legend:
Conditions in all cases: with arrb2_human ARRB2, P32121
[1] = variants of: B1
[2] = variants of: B1; remark: listed apart in the source
[3] = variants of: B1; remark: listed apart in the source

Variant | effect of a mutation on the interaction [1] | effect of a mutation on the interaction [2] | effect of a mutation on the interaction [3]
T198E | disrupting interaction | disrupting interaction strength | –
Y200E | disrupting interaction | – | decreasing interaction
